These results are taken from article PMC11667226 (Theranostics, 2025).

The Tmax is the time from dosing to the highest level. By Cmax is commonly meant the highest concentration seen after dosing. A word on the half-life: it is the time in which the quantity being followed falls by half.

Data set [1] concerns oral and oropharyngeal squamous cell carcinoma (OSCC, OPSCC). Briefly: Longitudinal preoperative transoral imaging of the tumors. The format is in vivo, human. The protocol: For 3 out of the 16 patients, longitudinal preoperative imaging of their tumors was captured during the period before surgery. […] Minor deviations from the protocol requirements were due to prioritization of the patients' night sleep before surgery - therefore, no images were taken in the timespan between 8 and 14 hrs post-injection. All longitudinal images were captured with the same camera-to-tumor distance (app. 25-35 cm) in a darkened room. The TBR value was calculated for all time points and plotted as a function of time, see Figure 4 for a case example.

The nature of the next data set: clinical. The protocol:
The blood samples were collected in Vacuette® 3 mL K2E K2EDTA vacutainer blood collection tubes, centrifuged (2500 rpm for 10 min at 4 °C), and the plasma was stored in a -20 °C freezer. Plasma concentrations were measured based on liquid chromatography with tandem mass spectrometric detection (LC-MS/MS) validated according to good laboratory practice (GLP), (LabCorp, Huntingdon, UK). The PK analysis was performed using a non-compartmental analysis method. […] The terminal phase half-life (T½) was calculated using terminal phase rate constant, which resulted from linear regression of the terminal linear portion of the log-concentration vs. time curve.
The primary endpoint was the sensitivity for detection of oral and oropharyngeal cancer verified by histology. The secondary endpoints were divided into efficacy and safety & tolerability. Regarding efficacy, the TBR and intraoperative tumor signal intensity were endpoints. The pharmacokinetics profile determined by a non-compartmental analysis was specified by peak plasma concentration, time of peak plasma concentration, the area under the plasma concentration-time curve from time-zero extrapolated to infinity, and terminal half-life. The safety & tolerability were assessed with adverse event monitoring, laboratory parameters, ECGs, vital signs, and physical examinations.

Marks after values point to notes of the source that are not given here. Non-standard residues stand in square brackets, D forms with d. Residues, ends and D or L forms follow the SMILES beside them. *: point of attachment. X1 = CC1(C)C(=CC=CC=CC=CC2=[N+](CCCCCC(=O)*)c3ccc4ccccc4c3C2(C)C)N(CCCCS(=O)(=O)[O-])c2ccc3ccccc3c21; Cha = N[C@@H](CC1CCCCC1)C(=O)O

`CC(C)C[C@H](NC(=O)[C@H](Cc1ccc(O)cc1)NC(=O)[C@@H](CCCNC(=N)N)NC(=O)[C@@H](CO)NC(=O)[C@H](Cc1ccccc1)NC(=O)[C@H](CC1CCCCC1)NC(=O)[C@H](CC(=O)O)NC(=O)[C@H](CCC(=O)O)NC(=O)[C@H](CCC(=O)O)NC(=O)CCCCC[N+]1=C(C=CC=CC=CC=C2N(CCCCS(=O)(=O)[O-])c3ccc4ccccc4c3C2(C)C)C(C)(C)c2c1ccc1ccccc21)C(=O)N[C@@H](Cc1c[nH]c2ccccc12)C(=O)N[C@@H](CO)C(=O)O` [FG001, ICG-Glu-Glu-AE105] (X1-EED[Cha]F[dS][dR]YLWS-OH; N-terminus and C-terminus assumed): in data set [1] (FG001 16 mg i.v., three awake patients, transoral), the “Time post-injection after which tumor-specific signals could be detected” value worked out at 2 h. In data set [1] (FG001 16 mg i.v., three awake patients, transoral, from 2 hrs until 19 hrs post-injection), the “TBR in longitudinal imaging” value is “above 2”. Moreover, in data set [1] (indicated by the longitudinal data for tumor imaging), the “Window for drug administration prior to surgery” value lay in the range of 2 to 19 h. In addition, the “Extrapolation to AUC from 0 to infinity (AUC0-inf)” value in “clinical” (all patients with a valid terminal phase) was below 25%. For the same compound, the “Mean half-life of FG001” value in “clinical” (human plasma, based on the plasma concentration measurements, all evaluable patients) was “approximately 12 hours”. Further, the “Maximum concentration (mean (SD))” value in the data set “clinical” (human plasma, single 4 mg i.v. dose, n = 4, LC-MS/MS) is 577 (373)* ng/mL. Besides, in the data set “clinical” (human plasma, single i.v. dose, first sample at 1 hr ± 15 min), the “Time of peak plasma concentration” value is listed as “within the first hour”. Besides, the time of peak concentration (Tmax) in the data set “clinical” (human, plasma, iv) came out at 1 h. In addition, the Cmax in the data set “clinical” (human, plasma, iv, 16 mg) amounted to 4300 ng/mL; in the data set “clinical” (human, plasma, iv, 36 mg), 8130 ng/mL. Further, the half-life in “clinical” (human, plasma, iv, 36 mg) was 11.2 h. Moreover, in “clinical” (one patient in the 4 mg group), the “Time of peak plasma concentration, one outlier” value turned out to be 12.8 h.
